From patent publication US20200157212A1 (Pfizer, published 2020)

B1: Ab22 (antibody, human IgG1, kappa, V domains shown)
VH: EVQLVQSGAEVKKPGASVKVSCKASGYTFTGYYMHWVRQAPGQGLEWMGWINPRSGATNFPQKFQGRVTMTRDTSITTAYMDLSRLRSDDTAVYYCARESGDDAFDIWGQGTMVTVSS
VL: DIVMTQSPSSLSASVGDRVTITCRASQSISSYLNWYQQKPGKAPKLLIYAASSLQYGVPSRFSGSGSGTDFTLTISSLQPEDFATYYCQQSYSTSFGGGTKVEIKR
notes: full-length human IgG
B2: Ab29 (antibody, human IgG1, kappa, V domains shown)
VH: EVQLVQSGAEVKKPGASVKVSCKASGYTFTGYYMHWVRQAPGQGLEWMGAIDPKSGTTMFPQKFQGRVTMTRDTSITTAYMDLSRLRSDDTAVYYCARESGDDAFDIWGQGTMVTVSS
VL: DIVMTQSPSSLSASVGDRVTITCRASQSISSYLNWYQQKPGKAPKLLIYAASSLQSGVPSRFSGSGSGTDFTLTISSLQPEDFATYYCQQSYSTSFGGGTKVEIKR
notes: full-length human IgG
B3: Ab83 (antibody, human IgG1, kappa, V domains shown)
VH: EVQLVQSGAEVKKPGASVKVSCKASGYTFTGYYMHWVRQAPGQGLEWMGWINPRNGITSFPQKFQGRVTMTRDTSITTAYMDLSRLRSDDTAVYYCARESGDDAFDIWGQGTMVTVSS
VL: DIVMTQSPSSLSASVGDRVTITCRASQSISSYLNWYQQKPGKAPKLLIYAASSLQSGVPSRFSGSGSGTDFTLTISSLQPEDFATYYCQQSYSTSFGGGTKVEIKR
notes: full-length human IgG
B4: Ab32 (antibody, human IgG1, kappa, V domains shown)
VH: EVQLVQSGAEVKKPGASVKVSCKASGYTFTGYYMHWVRQAPGQGLEWMGAIDPKLGITIFPQKFQGRVTMTRDTSITTAYMDLSRLRSDDTAVYYCARESGDDAFDIWGQGTMVTVSS
VL: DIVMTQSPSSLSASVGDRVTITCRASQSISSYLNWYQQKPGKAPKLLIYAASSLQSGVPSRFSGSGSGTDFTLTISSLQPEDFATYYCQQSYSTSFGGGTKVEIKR
notes: full-length human IgG
B5: Ab40 (antibody, human IgG1, kappa, V domains shown)
VH: EVQLVQSGAEVKKPGASVKVSCKASGYTFTGYYMHWVRQAPGQGLEWMGWINPNSGATNFPQKFQGRVTMTRDTSITTAYMDLSRLRSDDTAVYYCARESGDDAFDIWGQGTMVTVSS
VL: DIVMTQSPSSLSASVGDRVTITCRASQSISSYLNWYQQKPGKAPKLLIYAASSLQSGVPSRFSGSGSGTDFTLTISSLQPEDFATYYCQQSLELGFGGGTKVEIKR
notes: full-length human IgG
B6: Ab58 (antibody, human IgG1, kappa, V domains shown)
VH: EVQLVQSGAEVKKPGASVKVSCKASGYTFTGYYMHWVRQAPGQGLEWMGWINPKDGDTEFPQKFQGRVTMTRDTSITTAYMDLSRLRSDDTAVYYCARESGDDAFDIWGQGTMVTVSS
VL: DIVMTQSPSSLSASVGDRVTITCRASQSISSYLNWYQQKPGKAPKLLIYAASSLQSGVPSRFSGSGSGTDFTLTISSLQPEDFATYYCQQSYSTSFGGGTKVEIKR
notes: full-length human IgG
B7: Ab46 (antibody, human IgG1, kappa, V domains shown)
VH: EVQLVQSGAEVKKPGASVKVSCKASGYTFTGYYMHWVRQAPGQGLEWMGAIDPKHGFTIFPQKFQGRVTMTRDTSITTAYMDLSRLRSDDTAVYYCARESGDDAFDIWGQGTMVTVSS
VL: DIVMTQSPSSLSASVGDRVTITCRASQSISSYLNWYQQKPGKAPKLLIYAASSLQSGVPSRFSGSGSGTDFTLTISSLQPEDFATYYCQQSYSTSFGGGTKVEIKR
notes: full-length human IgG
B8: Ab112 (antibody, human IgG1, kappa, V domains shown)
VH: EVQLVQSGAEVKKPGASVKVSCKASGYTFTGYYMHWVRQAPGQGLEWMGWINPNSGATNFPQKFQGRVTMTRDTSITTAYMDLSRLRSDDTAVYYCARESGDDAFDIWGQGTMVTVSS
VL: DIVMTQSPSSLSASVGDRVTITCRASQSISSYLNWYQQKPGKAPKLLIYAASSLQSGVPSRFSGSGSGTDFTLTISSLQPEDFATYYCQQSVGLSFGGGTKVEIKR
notes: full-length human IgG

What was measured:
[1] = target: T1, Human ROBO2 overexpressed on HEK293 cells (human, UniProt Q9HCK4 22-1378); assay: flow cytometry, Geo MFI ROBO2/ROBO1 HEK293 cells, 0.1 µg/ml
T1 construct: also called ROBO2 cells; native ROBO2
T1 sequence: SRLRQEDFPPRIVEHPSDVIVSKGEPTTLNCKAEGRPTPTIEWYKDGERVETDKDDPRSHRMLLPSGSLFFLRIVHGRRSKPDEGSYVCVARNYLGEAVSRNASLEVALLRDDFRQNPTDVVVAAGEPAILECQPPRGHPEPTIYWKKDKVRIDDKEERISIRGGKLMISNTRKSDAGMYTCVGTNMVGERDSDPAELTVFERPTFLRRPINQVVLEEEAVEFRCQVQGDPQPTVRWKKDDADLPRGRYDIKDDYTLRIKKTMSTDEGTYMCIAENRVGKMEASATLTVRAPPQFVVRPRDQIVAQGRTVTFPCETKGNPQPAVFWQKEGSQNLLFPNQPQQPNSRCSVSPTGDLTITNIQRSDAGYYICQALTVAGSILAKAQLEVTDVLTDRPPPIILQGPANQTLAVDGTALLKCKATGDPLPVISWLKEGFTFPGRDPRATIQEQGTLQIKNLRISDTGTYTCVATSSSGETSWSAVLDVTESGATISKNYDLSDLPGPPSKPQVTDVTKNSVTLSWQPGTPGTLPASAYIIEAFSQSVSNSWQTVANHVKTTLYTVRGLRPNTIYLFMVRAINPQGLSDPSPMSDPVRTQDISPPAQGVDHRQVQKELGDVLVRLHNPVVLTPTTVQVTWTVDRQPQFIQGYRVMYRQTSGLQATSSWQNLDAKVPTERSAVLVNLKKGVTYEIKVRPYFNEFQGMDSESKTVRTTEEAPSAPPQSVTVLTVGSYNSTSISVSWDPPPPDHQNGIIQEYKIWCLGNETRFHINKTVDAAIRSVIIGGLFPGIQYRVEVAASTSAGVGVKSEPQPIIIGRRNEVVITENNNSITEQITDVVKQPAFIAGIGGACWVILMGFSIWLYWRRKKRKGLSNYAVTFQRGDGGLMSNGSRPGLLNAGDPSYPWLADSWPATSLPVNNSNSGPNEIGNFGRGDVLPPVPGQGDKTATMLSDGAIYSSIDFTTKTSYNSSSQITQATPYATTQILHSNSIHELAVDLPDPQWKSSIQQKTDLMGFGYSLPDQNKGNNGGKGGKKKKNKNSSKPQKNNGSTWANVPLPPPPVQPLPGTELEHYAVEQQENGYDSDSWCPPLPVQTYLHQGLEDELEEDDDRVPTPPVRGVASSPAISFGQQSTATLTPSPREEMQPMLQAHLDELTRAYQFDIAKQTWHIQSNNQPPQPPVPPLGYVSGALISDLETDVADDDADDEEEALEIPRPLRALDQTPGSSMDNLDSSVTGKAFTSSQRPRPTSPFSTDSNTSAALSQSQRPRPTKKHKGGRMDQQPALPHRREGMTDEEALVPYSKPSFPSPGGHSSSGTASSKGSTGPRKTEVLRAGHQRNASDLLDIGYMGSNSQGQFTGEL
Method: Binding of the antibodies was detected using a secondary fluorochrome conjugated anti-human IgG F(ab′)₂ antibody and samples were analyzed on a Fortessa cytometer (BD Biosciences). The fold ROBO2 selectivity was calculated as the geometric mean fluorescence intensity (Geo MFI) with ROBO2 cells/Geo MFI with ROBO1 cells. A fold change higher than 3 was considered to be ROBO2 specific (Table 2, Fold Selectivity). Some affinity matured clones had increased ROBO1 reactivity, for example Abcs 55, CTI-R2-10 and CTIR2-13.
HTRF assays were run with 5 nM d2-labeled SLIT2-N and antibodies were added at 1 nM. […] Antibodies derived from chain (Abcs series) or CDR shuffling (CTIR-2 series) were evaluated in 11-point, 5-fold dilution series with a top concentration of 1500 nM, N.T. = not tested; ^cFold selectivity was calculated as Geometric Mean Fluorescent Intensity (Geo MFI) of ROBO2/Geo MFI of ROBO1 binding. […] Outcomes: results are listed in order of assays listed in the table (left to right), I.A. = Improved Affinity

[2] = target: T2, Terbium (Tb) labeled-SNAP tagged ROBO2 expressed on HEK293 cells (Homo sapiens (Human), UniProt Q9HCK4 22-1378, terbium label on the SNAP tag); assay: HTRF, 5 nM d2-SLIT2-N on Tb-SNAP-ROBO2 HEK293 cells, 1 nM antibody
T2 construct: also called Tb-labeled ROBO2 cells; ROBO2 expressing cells; not shown: SNAP tag
T2 sequence: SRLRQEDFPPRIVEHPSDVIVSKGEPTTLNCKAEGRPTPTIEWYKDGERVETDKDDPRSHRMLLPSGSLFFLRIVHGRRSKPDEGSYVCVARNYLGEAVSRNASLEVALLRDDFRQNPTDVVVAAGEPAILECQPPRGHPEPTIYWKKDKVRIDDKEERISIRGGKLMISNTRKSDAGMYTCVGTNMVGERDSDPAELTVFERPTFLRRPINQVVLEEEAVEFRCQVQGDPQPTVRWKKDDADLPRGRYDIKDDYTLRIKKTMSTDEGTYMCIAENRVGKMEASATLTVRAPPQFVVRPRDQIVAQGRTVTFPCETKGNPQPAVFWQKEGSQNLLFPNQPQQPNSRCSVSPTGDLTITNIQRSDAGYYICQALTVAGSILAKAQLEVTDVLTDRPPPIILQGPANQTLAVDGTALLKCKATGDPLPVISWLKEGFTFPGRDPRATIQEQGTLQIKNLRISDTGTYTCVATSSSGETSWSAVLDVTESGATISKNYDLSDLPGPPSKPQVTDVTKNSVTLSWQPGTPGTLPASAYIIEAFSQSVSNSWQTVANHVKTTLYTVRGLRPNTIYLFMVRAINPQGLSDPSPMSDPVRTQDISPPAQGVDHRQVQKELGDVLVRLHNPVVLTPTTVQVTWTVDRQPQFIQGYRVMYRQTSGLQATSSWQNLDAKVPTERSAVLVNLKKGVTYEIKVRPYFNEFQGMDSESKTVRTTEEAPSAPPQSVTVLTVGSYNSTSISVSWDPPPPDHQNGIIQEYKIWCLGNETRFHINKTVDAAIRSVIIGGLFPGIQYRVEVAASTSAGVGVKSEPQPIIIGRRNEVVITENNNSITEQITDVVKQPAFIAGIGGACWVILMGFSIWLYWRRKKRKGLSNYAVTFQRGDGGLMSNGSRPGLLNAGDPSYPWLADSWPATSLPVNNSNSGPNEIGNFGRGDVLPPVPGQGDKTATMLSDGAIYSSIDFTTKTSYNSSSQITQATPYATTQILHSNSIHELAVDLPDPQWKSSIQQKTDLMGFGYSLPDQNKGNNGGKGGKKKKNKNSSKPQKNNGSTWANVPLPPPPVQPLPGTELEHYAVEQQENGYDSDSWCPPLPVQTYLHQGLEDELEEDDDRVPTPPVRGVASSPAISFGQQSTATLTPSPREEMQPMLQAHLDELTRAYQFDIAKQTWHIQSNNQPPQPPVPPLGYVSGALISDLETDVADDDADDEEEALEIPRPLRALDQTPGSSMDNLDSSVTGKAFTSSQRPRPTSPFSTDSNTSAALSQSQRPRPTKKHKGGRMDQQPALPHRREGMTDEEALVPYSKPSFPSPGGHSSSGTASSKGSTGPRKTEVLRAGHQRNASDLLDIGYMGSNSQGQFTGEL
Method: (§1) In this assay, terbium (Tb) labeled-SNAP tagged ROBO2 expressing HEK293 cells were incubated with 5 nM d2-labeled SLIT-2N in the presence of 1 nM anti-ROBO2 antibodies for 1 hour. After incubation, fluorescence at 665 nm and 620 nm was measured on an Envision multilabel plate reader. […] Maximal signal was defined as the HTRF ratio of Tb-labeled ROBO2 cells with d2-labeled SLIT2-N in the absence of antibody, the minimum signal was defined as the HTRF ratio of Tb-labeled ROBO2 expressing HEK293 cells only. One nanomolar (nM) parental antibody, 93H2, was unable to block the HTRF assay, therefore this concentration was selected to identify clones with a higher affinity than 93H2 (Table 2, HTRF Ratio column). […] Antibodies derived from chain (Abcs series) or CDR shuffling (CTIR-2 series) were evaluated in 11-point, 5-fold dilution series with a top concentration of 1500 nM (Table 2 HTRF IC₅₀).
HTRF assays were run with 5 nM d2-labeled SLIT2-N and antibodies were added at 1 nM. […] Antibodies derived from chain (Abcs series) or CDR shuffling (CTIR-2 series) were evaluated in 11-point, 5-fold dilution series with a top concentration of 1500 nM, N.T. = not tested; ^cFold selectivity was calculated as Geometric Mean Fluorescent Intensity (Geo MFI) of ROBO2/Geo MFI of ROBO1 binding.

[3] = target: T2, Terbium (Tb) labeled-SNAP tagged ROBO2 …; assay: HTRF competition, competitor d2-SLIT2-N, ROBO2 HEK293 cells
Method: as §1, with “Antibodies generated as a result of the affinity maturation campaign were screened by numerous assays for neutralization of SLIT2-N binding, selective binding to ROBO2 over ROBO1, and inhibition of SLIT2-N functional activity (see Table 2). A ROBO2-SLIT2-N homogenous time resolved fluorescence (HTRF) assay was used to identify antibodies that were capable of blocking SLIT2-N binding to ROBO2. In” for “In”

| Binder | Fold Selectivity for ROBO2/ROBO1 [1] | HTRF Ratio [2] | IC50 [3] |
| --- | --- | --- | --- |
| B1 | 67.4 fold | 5730 | 0.229 nM |
| B2 | > 100 fold | 7730 | 0.097 nM |
| B3 | 40.6 fold | 4770 | 0.437 nM |
| B4 | 90.3 fold | 6000 | 0.234 nM |
| B5 | > 100 fold | 7430 | 0.728 nM |
| B6 | 21.8 fold | 5570 | 0.282 nM |
| B7 | > 100 fold | 5710 | 0.109 nM |
| B8 | 39.2 fold | 7300 | 0.174 nM |
